In article PMC8224933, “Plasticity of seven-transmembrane-helix receptor heteromers in human vascular smooth muscle cells” (PLoS ONE, 2021):

T1: α1D-adrenoceptor (human (endogenous in hVSMCs), UniProt P25100 1-572)
T1 construct: α1D-adrenoceptor, endogenous in human vascular smooth muscle cells; also called α1D-AR; source: endogenous, hVSMCs (primary aortic smooth muscle cells, ATCC PCS-100-012), fixed cells
T1 sequence (looked up): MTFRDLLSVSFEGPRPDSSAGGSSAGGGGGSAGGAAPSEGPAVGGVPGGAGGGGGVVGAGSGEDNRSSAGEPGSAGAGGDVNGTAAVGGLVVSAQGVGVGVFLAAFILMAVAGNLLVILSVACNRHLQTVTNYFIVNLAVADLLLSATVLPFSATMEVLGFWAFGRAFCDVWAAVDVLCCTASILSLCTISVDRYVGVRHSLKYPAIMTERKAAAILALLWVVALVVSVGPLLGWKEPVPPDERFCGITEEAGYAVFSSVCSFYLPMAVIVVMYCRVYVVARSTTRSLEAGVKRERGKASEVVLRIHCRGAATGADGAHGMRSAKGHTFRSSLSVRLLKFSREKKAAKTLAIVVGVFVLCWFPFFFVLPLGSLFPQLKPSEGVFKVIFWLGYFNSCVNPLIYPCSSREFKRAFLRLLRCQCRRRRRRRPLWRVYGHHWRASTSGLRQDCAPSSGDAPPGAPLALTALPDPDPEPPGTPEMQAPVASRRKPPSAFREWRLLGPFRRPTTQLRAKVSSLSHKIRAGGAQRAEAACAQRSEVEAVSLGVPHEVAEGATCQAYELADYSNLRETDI

B1: chemokine (C-X-C motif) receptor 4 (receptor, human (endogenous in hVSMCs), UniProt P61073 1-352, looked up)
chain: MEGISIYTSDNYTEEMGSGDYDSMKEPCFREENANFNKIFLPTIYSIIFLTGIVGNGLVILVMGYQKKLRSMTDKYRLHLSVADLLFVITLPFWAVDAVANWYFGNFLCKAVHVIYTVNLYSSVLILAFISLDRYLAIVHATNSQRPRKLLAEKVVYVGVWIPALLLTIPDFIFANVSEADDRYICDRFYPNDLWVVVFQFQHIMVGLILPGIVILSCYCIIISKLSHSKGHQKRKALKTTVILILAFFACWLPYYIGISIDSFILLEIIKQGCEFENTVHKWISITEALAFFHCCLNPILYAFLGAKFKTSAQHALTSVSRGSSLKILSKGKRGGHSSVSTESESSSFHSS
notes: chemokine (C-X-C motif) receptor 4 (CXCR4), endogenous in human vascular smooth muscle cells; also called CXCR4; source: endogenous, hVSMCs (primary aortic smooth muscle cells, ATCC PCS-100-012), fixed cells
B2: α1B-adrenoceptor (receptor, human (endogenous in hVSMCs), UniProt P35368 1-520, looked up)
chain: MNPDLDTGHNTSAPAHWGELKNANFTGPNQTSSNSTLPQLDITRAISVGLVLGAFILFAIVGNILVILSVACNRHLRTPTNYFIVNLAMADLLLSFTVLPFSAALEVLGYWVLGRIFCDIWAAVDVLCCTASILSLCAISIDRYIGVRYSLQYPTLVTRRKAILALLSVWVLSTVISIGPLLGWKEPAPNDDKECGVTEEPFYALFSSLGSFYIPLAVILVMYCRVYIVAKRTTKNLEAGVMKEMSNSKELTLRIHSKNFHEDTLSSTKAKGHNPRSSIAVKLFKFSREKKAAKTLGIVVGMFILCWLPFFIALPLGSLFSTLKPPDAVFKVVFWLGYFNSCLNPIIYPCSSKEFKRAFVRILGCQCRGRGRRRRRRRRRLGGCAYTYRPWTRGGSLERSQSRKDSLDDSGSCLSGSQRTLPSASPSPGYLGRGAPPPVELCAFPEWKAPGALLSLPAPEPPGRRGRHDSGPLFTFKLLTEPESPGTDGGASNGGCEAAADVANGQPGFKSNMPLAPGQF
notes: α1B-adrenoceptor, endogenous in human vascular smooth muscle cells; also called α1B-AR; source: endogenous, hVSMCs (primary aortic smooth muscle cells, ATCC PCS-100-012), fixed cells
B3: α1A-adrenoceptor (receptor, human (endogenous in hVSMCs), UniProt P35348 1-466, looked up)
chain: MVFLSGNASDSSNCTQPPAPVNISKAILLGVILGGLILFGVLGNILVILSVACHRHLHSVTHYYIVNLAVADLLLTSTVLPFSAIFEVLGYWAFGRVFCNIWAAVDVLCCTASIMGLCIISIDRYIGVSYPLRYPTIVTQRRGLMALLCVWALSLVISIGPLFGWRQPAPEDETICQINEEPGYVLFSALGSFYLPLAIILVMYCRVYVVAKRESRGLKSGLKTDKSDSEQVTLRIHRKNAPAGGSGMASAKTKTHFSVRLLKFSREKKAAKTLGIVVGCFVLCWLPFFLVMPIGSFFPDFKPSETVFKIVFWLGYLNSCINPIIYPCSSQEFKKAFQNVLRIQCLCRKQSSKHALGYTLHPPSQAVEGQHKDMVRIPVGSRETFYRISKTDGVCEWKFFSSMPRGSARITVSKDQSSCTTARVRSKSFLQVCCCVGPSTPSLDKNHQVPTIKVHTISLSENGEEV
notes: α1A-adrenoceptor, endogenous in human vascular smooth muscle cells; also called α1A-AR; source: endogenous, hVSMCs (primary aortic smooth muscle cells, ATCC PCS-100-012), fixed cells

Key:
Assay in all cases: proximity ligation; Duolink II PLA on hVSMCs fixed with 4% paraformaldehyde; two primary antibodies from differing species (1:500, 37°C, 105 min); control: omission of one primary antibody; PLA signals per cell counted; cells untreated or incubated 72 h with non-targeting, CXCR4, ACKR3 or AVPR1A siRNA
Conditions in all cases: partners not purified
α1B-adrenoceptor = target: B2
α1A-adrenoceptor = target: B3
α1D-adrenoceptor = target: T1, α1D-adrenoceptor

Row | PLA signals after AVPR1A siRNA, % of NT siRNA (α1B-adrenoceptor) | PLA signals after AVPR1A siRNA, % of NT siRNA (α1A-adrenoceptor) | PLA signals after AVPR1A siRNA, % of NT siRNA (α1D-adrenoceptor) | Binder
1 | 72% | 91% | – | B1
2 | – | – | 141% | B2
3 | 101% | – | – | B3
